These results are taken from patent publication US20260308536A1, “NOVEL URICASE VARIANTS AND METHODS OF USE THEREOF” (priority 2023, published 2026).

Substrate in series [1]: O=c1[nH]c(=O)c2[nH]c(=O)[nH]c2[nH]1
The series is described as follows: purified protein, by the assay type. Type of series: biochemical, chimeric pig-baboon. The conditions noted are these: other: role: substrate. The text has this: The monomeric form of the wild type chimeric pig-baboon uricase comprises the amino acid sequence of SEQ ID NO:5, where threonine is residue #1. The specified mutations in the chimeric pig-baboon uricase variants of this example are indexed to threonine as residue #1, as in SEQ ID NO:5. […] The expression vector pET-26b(+) encodes a His tag containing 6 histidine residues at the C-terminus of the inserted uricase gene.
The activity of the purified enzymes was quantified by Michaelis Menten kinetic analysis, using the solution phase microplate assay across a range of substrate concentrations (FIG. 4B).

Substrate in series [2]: O=c1[nH]c(=O)c2[nH]c(=O)[nH]c2[nH]1
As to the kind of experiment: Michaelis-Menten kinetics, MedU_5E9. To be noted: other: role: substrate; non-PEGylated; Table 8B; pH 10.5. It counts as biochemical, Arthrobacter globiformis. As to the method: (§1) Select Arthrobacter globiformis uricase variants MedU_1B7, MedU_5B8, MedU_1C2, MedU_5C9, MedU_5E6, MedU_5E9, and MedU_IF1 were subject to further characterization by comparing their expression yields, Michaelis-Menten kinetics parameters, and thermostability measured by temperatures at which 50% of normal activity was lost determined by heat stress activity assay, with those of the wild type Arthrobacter globiformis uricase. The expression yields were determined as described above in the “Methods” section. The Michaelis-Menten kinetics parameters kcat and KM, and temperatures at which 50% of normal activity was lost (i.e., 50% thermal inactivation temperatures, referred to as TI50 (° C.)) measured by heat stress activity assay were likewise determined using the methods described in Example 1.

Substrate in series [3]: O=c1[nH]c(=O)c2[nH]c(=O)[nH]c2[nH]1
As to the kind of experiment: Michaelis-Menten kinetics, MedU_1F1. The conditions noted are these: other: role: substrate; non-PEGylated; Table 8B; pH 10.5. It counts as biochemical, Arthrobacter globiformis. As to the method:
as §1

Substrate in series [4]: O=c1[nH]c(=O)c2[nH]c(=O)[nH]c2[nH]1
As to the kind of experiment: Michaelis-Menten kinetics, MedU_5C9. The conditions noted are these: other: role: substrate; non-PEGylated; Table 8B; pH 10.5. It counts as biochemical, Arthrobacter globiformis. As to the method: as §1

Substrate in series [5]: O=c1[nH]c(=O)c2[nH]c(=O)[nH]c2[nH]1
The series is described as follows: Michaelis-Menten kinetics, MedU_5B8. It counts as biochemical, Arthrobacter globiformis. The conditions noted are these: other: role: substrate; non-PEGylated; Table 8B; pH 10.5. The method, then: as §1

B1: chimeric pig-baboon uricase, wild type, SEQ ID NO: 5 (Sus scrofa; R291K/S46T/T301S) (protein)
chain: TYKKNDEVEFVRTGYGKDMIKVLHIQRDGKYHSIKEVATTVQLTLSSKKDYLHGDNSDVIPTDTIKNTVNVLAKFKGIKSIETFAVTICEHFLSSFKHVIRAQVYVEEVPWKRFEKNGVKHVHAFIYTPTGTHFCEVEQIRNGPPVIHSGIKDLKVLKTTQSGFEGFIKDQFTTLPEVKDRCFATQVYCKWRYHQGRDVDFEATWDTVRSIVLQKFAGPYDKGEYSPSVQKTLYDIQVLTLGQVPEIEDMEISLPNIHYLNIDMSKMGLINKEEVLLPLDNPYGKITGTVKRKLSSRL
notes: His6 (C); made in house; host or cells: E. coli
B1: the Michaelis constant (Km) (usually the concentration of substrate that gives half-maximal velocity) in series [1] (non-PEGylated, pH 10.5, 25° C., Table 2) amounted to 397 µM; in series [1] (purified enzyme, non-linear regression, Table 3, pH 10.5, 25.0 °C), 400 ± 50 µM.

B2: Arthrobacter globiformis uricase variant MedU_5E9, N33E/A35D/A83G/A145T/A148S/V195D/A204D/A213G/L220K/K244S/Y270H, SEQ ID NO: 164 (Arthrobacter globiformis; … (protein)
chain: MTATAETSTGTKVVLGQNQYGKAEVRLVKVTRETDRHEIQDLNVTSQLSGDFEAAHTAGDNAHVVATDTQKNTVYAFARDGFGTTEEFLLRLGKHFTEGFDWVTGGRWAAQQFFWDRINDHDHAFSRNKSEVRTAVLEISGSEQTIVSGIEGLTVLKSTGSEFHGFPRDKYTTLQETTDRILATDVSARWRYNTDEVDFDAVYDSVRGLLLKGFAETHSKALQQTMYEMGRAVIETHPEIDEISMSLPNKHHFLVDLQPFGQDNPNEVFHAADRPYGLIEATIQREGSRAD
notes: R49S backbone, 291 aa; pET-26b(+), C-terminal His6, E. coli; non-PEGylated
B2: in series [2], the Michaelis-Menten constant (Km) is 800 ± 100 µM; the kcat (commonly the number of substrate molecules converted per active site and unit of time at saturation) was 6.0 ± 0.4 s⁻¹.

B3: Arthrobacter globiformis uricase variant MedU_1F1, A35D/A83G/L89G/V195E/Y203H/A204E/A213G/L220H/I243V/K244S/K250N, SEQ ID NO: 95 (Arthrobacter globiformis; … (protein)
chain: MTATAETSTGTKVVLGQNQYGKAEVRLVKVTRNTDRHEIQDLNVTSQLSGDFEAAHTAGDNAHVVATDTQKNTVYAFARDGFGTTEEFGLRLGKHFTEGFDWVTGGRWAAQQFFWDRINDHDHAFSRNKSEVRTAVLEISGSEQAIVAGIEGLTVLKSTGSEFHGFPRDKYTTLQETTDRILATDVSARWRYNTEEVDFDAVHESVRGLLLKGFAETHSHALQQTMYEMGRAVIETHPEIDEVSMSLPNNHHFLVDLQPFGQDNPNEVFYAADRPYGLIEATIQREGSRAD
notes: as for B2
In the case of B3, in series [3], the Michaelis constant (Km) worked out at 370 ± 60 µM and the kcat turned out to be 2.5 ± 0.1 s⁻¹.

B4: Arthrobacter globiformis uricase variant MedU_5C9, A35D/A145H/A148S/V195D/A204D/A213G/K244S/K250N, SEQ ID NO: 144 (Arthrobacter globiformis; … (protein)
chain: MTATAETSTGTKVVLGQNQYGKAEVRLVKVTRNTDRHEIQDLNVTSQLSGDFEAAHTAGDNAHVVATDTQKNTVYAFARDGFATTEEFLLRLGKHFTEGFDWVTGGRWAAQQFFWDRINDHDHAFSRNKSEVRTAVLEISGSEQHIVSGIEGLTVLKSTGSEFHGFPRDKYTTLQETTDRILATDVSARWRYNTDEVDFDAVYDSVRGLLLKGFAETHSLALQQTMYEMGRAVIETHPEIDEISMSLPNNHHFLVDLQPFGQDNPNEVFYAADRPYGLIEATIQREGSRAD
notes: as for B2
For the protein B4, in series [4], the Michaelis-Menten constant (Km) was 340 ± 80 µM and the kcat is 2.4 ± 0.1 s⁻¹.

B5: Arthrobacter globiformis uricase variant MedU_5B8, A35D/A83G/A145T/A148S/V195E/A204D/A213G/L220H/I243V/K244S, SEQ ID NO: 134 (Arthrobacter globiformis; … (protein)
chain: MTATAETSTGTKVVLGQNQYGKAEVRLVKVTRNTDRHEIQDLNVTSQLSGDFEAAHTAGDNAHVVATDTQKNTVYAFARDGFGTTEEFLLRLGKHFTEGFDWVTGGRWAAQQFFWDRINDHDHAFSRNKSEVRTAVLEISGSEQTIVSGIEGLTVLKSTGSEFHGFPRDKYTTLQETTDRILATDVSARWRYNTEEVDFDAVYDSVRGLLLKGFAETHSHALQQTMYEMGRAVIETHPEIDEVSMSLPNKHHFLVDLQPFGQDNPNEVFYAADRPYGLIEATIQREGSRAD
notes: as for B2
For the protein B5, in series [5], the Michaelis-Menten constant (Km) came out at 390 ± 80 µM and the kcat is 3.9 ± 0.2 s⁻¹.
